{"source": "the supplement of paper PMC9112550", "about": "“Optimization of the antimicrobial peptide Bac7 by deep mutational scanning” (BMC Biology, 2022);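 also: peptides expressed intracellularly from a pBAD plasmid library in pooled LB shake-flask culture, induced with 0.3% L-arabinose, DNA abundance read by NGS, three biological replicates, DESeq2 with apeglm shrinkage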", "data": [{"test_system": "Escherichia coli TOP10", "experiment": "shrunken log2 fold change of peptide-encoding DNA abundance (4.5 h post-induction vs induction); higher = less antimicrobial activity (less host growth inhibition)", "conditions": "time post-induction: 4.5 h; library: site-saturation at positions 5, 18, 19, 20", "values": [{"sequence": "RRIRRRPPRLPRPRPRPPCMPRP", "shrunken log2 fold change": 0.404}, {"sequence": "RRIRARPPRLPRPRPRPPKFPRP", "shrunken log2 fold change": 0.121}, {"sequence": "RRIRQRPPRLPRPRPRPYLKPRP", "shrunken log2 fold change": 0.00123}, {"sequence": "RRIRVRPPRLPRPRPRPEIKPRP", "shrunken log2 fold change": -0.107}, {"sequence": "RRIRARPPRLPRPRPRPFRCPRP", "shrunken log2 fold change": -0.0823}, {"sequence": "RRIRFRPPRLPRPRPRPHECPRP", "shrunken log2 fold change": 0.0366}, {"sequence": "RRIRTRPPRLPRPRPRPHKCPRP", "shrunken log2 fold change": 0.215}, {"sequence": "RRIRPRPPRLPRPRPRPTQAPRP", "shrunken log2 fold change": 0.0364}, {"sequence": "RRIRERPPRLPRPRPRPIADPRP", "shrunken log2 fold change": 0.13}, {"sequence": "RRIRLRPPRLPRPRPRPNRNPRP", "shrunken log2 fold change": -0.884}, {"sequence": "RRIRIRPPRLPRPRPRPWQMPRP", "shrunken log2 fold change": 0.0562}, {"sequence": "RRIRWRPPRLPRPRPRPLAGPRP", "shrunken log2 fold change": 0.493}, {"sequence": "RRIRIRPPRLPRPRPRPHFQPRP", "shrunken log2 fold change": -1.78}, {"sequence": "RRIRPRPPRLPRPRPRPQKWPRP", "shrunken log2 fold change": 0.17}, {"sequence": "RRIRVRPPRLPRPRPRPKETPRP", "shrunken log2 fold change": 0.0161}, {"sequence": "RRIRTRPPRLPRPRPRPVIMPRP", "shrunken log2 fold change": -0.181}, {"sequence": "RRIRHRPPRLPRPRPRPDRRPRP", "shrunken log2 fold change": -0.118}, {"sequence": "RRIRQRPPRLPRPRPRPYSLPRP", "shrunken log2 fold change": -0.197}, {"sequence": "RRIRPRPPRLPRPRPRPFQMPRP", "shrunken log2 fold change": -0.0867}, {"sequence": "RRIRARPPRLPRPRPRPVQQPRP", "shrunken log2 fold change": 0.954}, {"sequence": "RRIRVRPPRLPRPRPRPHMQPRP", "shrunken log2 fold change": 0.0906}, {"sequence": "RRIRERPPRLPRPRPRPQKNPRP", "shrunken log2 fold change": -0.49}, {"sequence": "RRIRTRPPRLPRPRPRPHPEPRP", "shrunken log2 fold change": -0.0834}, {"sequence": "RRIRIRPPRLPRPRPRPEVPPRP", "shrunken log2 fold change": -0.0152}, {"sequence": "RRIRIRPPRLPRPRPRPWPWPRP", "shrunken log2 fold change": 0.0338}, {"sequence": "RRIRLRPPRLPRPRPRPSQHPRP", "shrunken log2 fold change": -0.169}, {"sequence": "RRIRIRPPRLPRPRPRPPVLPRP", "shrunken log2 fold change": 0.328}, {"sequence": "RRIRHRPPRLPRPRPRPQSTPRP", "shrunken log2 fold change": -0.395}, {"sequence": "RRIRMRPPRLPRPRPRPTEGPRP", "shrunken log2 fold change": 0.269}, {"sequence": "RRIRPRPPRLPRPRPRPMQPPRP", "shrunken log2 fold change": 0.234}, {"sequence": "RRIRQRPPRLPRPRPRPILSPRP", "shrunken log2 fold change": 0.0165}, {"sequence": "RRIRVRPPRLPRPRPRPVYKPRP", "shrunken log2 fold change": -0.302}, {"sequence": "RRIRYRPPRLPRPRPRPRQVPRP", "shrunken log2 fold change": -0.206}, {"sequence": "RRIRARPPRLPRPRPRPKYLPRP", "shrunken log2 fold change": -0.299}, {"sequence": "RRIRFRPPRLPRPRPRPSVSPRP", "shrunken log2 fold change": -0.2}, {"sequence": "RRIRYRPPRLPRPRPRPPGYPRP", "shrunken log2 fold change": 1.43}, {"sequence": "RRIRCRPPRLPRPRPRPRWMPRP", "shrunken log2 fold change": 0.346}, {"sequence": "RRIRKRPPRLPRPRPRPHNTPRP", "shrunken log2 fold change": -0.152}, {"sequence": "RRIRKRPPRLPRPRPRPMDYPRP", "shrunken log2 fold change": 0.0283}, {"sequence": "RRIRFRPPRLPRPRPRPKHWPRP", "shrunken log2 fold change": 0.0787}, {"sequence": "RRIRDRPPRLPRPRPRPCEPPRP", "shrunken log2 fold change": 0.194}, {"sequence": "RRIRDRPPRLPRPRPRPDSGPRP", "shrunken log2 fold change": -0.00436}, {"sequence": "RRIRIRPPRLPRPRPRPVDYPRP", "shrunken log2 fold change": -0.0672}, {"sequence": "RRIRERPPRLPRPRPRPLRKPRP", "shrunken log2 fold change": 0.722}, {"sequence": "RRIRERPPRLPRPRPRPDYDPRP", "shrunken log2 fold change": -0.021}, {"sequence": "RRIRGRPPRLPRPRPRPVCFPRP", "shrunken log2 fold change": 0.997}, {"sequence": "RRIRDRPPRLPRPRPRPWAVPRP", "shrunken log2 fold change": -0.066}, {"sequence": "RRIRMRPPRLPRPRPRPHYPPRP", "shrunken log2 fold change": -0.303}, {"sequence": "RRIRARPPRLPRPRPRPRMAPRP", "shrunken log2 fold change": 0.479}, {"sequence": "RRIRFRPPRLPRPRPRPKDLPRP", "shrunken log2 fold change": 0.0796}, {"sequence": "RRIRERPPRLPRPRPRPDPDPRP", "shrunken log2 fold change": -0.0294}, {"sequence": "RRIRHRPPRLPRPRPRPHCTPRP", "shrunken log2 fold change": -0.0731}, {"sequence": "RRIRMRPPRLPRPRPRPCAWPRP", "shrunken log2 fold change": 0.513}, {"sequence": "RRIRSRPPRLPRPRPRPFIMPRP", "shrunken log2 fold change": -1.09}, {"sequence": "RRIRRRPPRLPRPRPRPAFTPRP", "shrunken log2 fold change": 0.118}, {"sequence": "RRIRWRPPRLPRPRPRPWEVPRP", "shrunken log2 fold change": -0.0113}, {"sequence": "RRIRDRPPRLPRPRPRPNKLPRP", "shrunken log2 fold change": -0.277}, {"sequence": "RRIRWRPPRLPRPRPRPDKYPRP", "shrunken log2 fold change": -0.126}, {"sequence": "RRIRKRPPRLPRPRPRPYMHPRP", "shrunken log2 fold change": -0.0355}, {"sequence": "RRIRERPPRLPRPRPRPMLTPRP", "shrunken log2 fold change": 0.151}, {"sequence": "RRIRGRPPRLPRPRPRPRKYPRP", "shrunken log2 fold change": 0.0397}, {"sequence": "RRIRNRPPRLPRPRPRPFWPPRP", "shrunken log2 fold change": 0.226}, {"sequence": "RRIRCRPPRLPRPRPRPKRYPRP", "shrunken log2 fold change": -0.0053}, {"sequence": "RRIRARPPRLPRPRPRPQECPRP", "shrunken log2 fold change": -0.0292}, {"sequence": "RRIRFRPPRLPRPRPRPSQRPRP", "shrunken log2 fold change": 0.384}, {"sequence": "RRIRARPPRLPRPRPRPWEMPRP", "shrunken log2 fold change": 0.00132}, {"sequence": "RRIRPRPPRLPRPRPRPGSCPRP", "shrunken log2 fold change": 0.111}, {"sequence": "RRIRNRPPRLPRPRPRPQRTPRP", "shrunken log2 fold change": -0.248}, {"sequence": "RRIRKRPPRLPRPRPRPMANPRP", "shrunken log2 fold change": 0.0288}, {"sequence": "RRIRYRPPRLPRPRPRPAFKPRP", "shrunken log2 fold change": -0.145}, {"sequence": "RRIRPRPPRLPRPRPRPASVPRP", "shrunken log2 fold change": 0.185}, {"sequence": "RRIRIRPPRLPRPRPRPEMFPRP", "shrunken log2 fold change": 0.0821}, {"sequence": "RRIRGRPPRLPRPRPRPYMGPRP", "shrunken log2 fold change": -0.00228}, {"sequence": "RRIRQRPPRLPRPRPRPKKCPRP", "shrunken log2 fold change": -0.0485}, {"sequence": "RRIRARPPRLPRPRPRPLICPRP", "shrunken log2 fold change": 0.341}]}]}
